# Experimental data from the emibetuzumab library of Makowski et al. (2022).
# B1: VH:VL chains; a variant is named by its letters at X, in order (parent)
# chain 1: QVQLVQSGAEVKKPGASVKVSCKASGYTFTDYXMHWVRQAPGQGLEWMGXVNPNXXXTTYNQKFEGRVTMTTDTSTSTAYMELRSLRSDDTAVYYCARXNXLDXWGQGTTVTVSS
# chain 2: DIQMTQSPSSLSASVGDRVTITCSVSSSVSSIYLHWYQQKPGKAPKLLIYSTSNLASGVPSRFSGSGSGTDFTLTISSLQPEDFATYYCQVYSGYPLTFGGGTKVEIK
# Variants of: B1
# Assay: yeast display scFab, FACS + sequencing
# How it was run: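 Non-specific binding was called from deep sequencing of sorted yeast cells displaying a heavy-chain CDR mutant scFab library. Cells labelled with anti-Myc and biotinylated ovalbumin (260 μg/mL in PBSB, 3 h, room temperature) or soluble membrane proteins (130 μg/mL, 20 min on ice) were FACS-sorted, collecting the top 25% and bottom 10% of binders from two replicates. A sequence was positive when present in ≥3 of 4 pooled positive samples and absent from all negatives, and negative under the converse rule.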
row,Variant,non-specific binding call
1,VTGRAALA,no binding
2,STGRAALA,no binding
3,DTERDDAV,no binding
4,DTGTGDSA,no binding
5,YTEGDDWY,no binding
6,DTEGDAGD,no binding
7,FTGGAAGD,no binding
8,VTERGSLD,no binding
9,VTEGGSVD,binds
10,FTGRGAAA,binds
11,DTGGGDLA,no binding
12,FTGRAAAV,no binding
13,VTGGDSAS,no binding
14,YTERGFGV,no binding
15,VTERSALD,binds
16,VTGESAAV,no binding
17,DTGGDDGF,no binding
18,ATGRASLD,no binding
19,FTETGFGA,binds
20,STGKGSGV,no binding
21,ATGANAAV,no binding
22,DTGTGAGV,no binding
23,DTGTGAGD,no binding
24,VTGGDYAV,no binding
25,FTGTGSGA,no binding

row,Variant,non-specific binding call
1,STEASYLS,no binding
2,FTGEAAGD,no binding
3,DTGGDDWF,no binding
4,DTERGSLV,no binding
5,YTGGNDAD,no binding
6,VTGGDSGD,no binding
7,VTERDDAV,no binding
8,DTGTGDWV,no binding
9,STGGGDGV,no binding
10,YTGGDDWV,no binding
11,FTEEGDGV,no binding
12,FTEEGDGA,no binding
13,VTGTASSV,no binding
14,YTEGDFAV,no binding
15,VTGGGASF,no binding
16,VTGEDDGD,no binding
17,VTGEDDGS,no binding
18,YTGRGSLD,binds
19,DTGEADAS,no binding
20,YTGTGSGA,no binding
21,VTGGDDGY,no binding
22,VTGGDDGA,no binding
23,VTGTGDAD,no binding
24,VTGTGDAV,no binding
25,STGRADWA,no binding

row,Variant,non-specific binding call
1,VTGEDDAV,no binding
2,VTGEDDAA,no binding
3,ATGRADGV,no binding
4,FTEEGAVD,no binding
5,FTGEDDVY,no binding
6,VTEEGSSV,no binding
7,YTEETDGF,binds
8,VTGEDSSD,no binding
9,VTEGDAGD,no binding
10,VTEGDAGA,no binding
11,ATGRAAGD,no binding
12,VTGRGDVF,no binding
13,VTGRGDVA,no binding
14,VTGGDSSD,no binding
15,VTGGDSSA,no binding
16,FTETGAGD,no binding
17,ATGANSLD,no binding
18,ATGGDSGD,no binding
19,ATGANAGD,no binding
20,DTGTGDGV,no binding
21,YTGEADAS,no binding
22,VTGTGAVY,no binding
23,VTGTGAVV,no binding
24,STGGDDGF,no binding
25,STGGDDGA,no binding

row,Variant,non-specific binding call
1,DTGGSASA,no binding
2,ATGRADWA,no binding
3,VTGEDAGA,no binding
4,VTGEDAGD,no binding
5,VTGEDAGS,no binding
6,STEGDAGA,no binding
7,STEGGSVY,no binding
8,YTGEGDGV,no binding
9,YTERNFGV,binds
10,VTEGDSGV,no binding
11,DTGKDAGD,no binding
12,YTGRGSGV,binds
13,FTETGSVD,no binding
14,YTERGDAV,no binding
15,VTGRAAWV,no binding
16,VTGEGALV,no binding
17,ATGEADAS,no binding
18,VTETGDSV,no binding
19,VTGTGSGD,no binding
20,VTGTGSGF,no binding
21,YTGGDSVA,no binding
22,YTGGDSVD,no binding
23,DTGGGDAA,no binding
24,DTGGGDAY,no binding
25,DTGGGDAV,no binding

row,Variant,non-specific binding call
1,DTGTGALV,no binding
2,STGTGALA,no binding
3,ATGEGDWS,no binding
4,FTGGDALA,no binding
5,VTEGGDAA,no binding
6,DTGTGSSA,no binding
7,YTGGDDGF,no binding
8,FTGRAYGF,binds
9,VTGEDDVV,no binding
10,VTGEDDVD,no binding
11,VTGEDDVA,no binding
12,VTGGDDWV,no binding
13,VTGGDDWF,no binding
14,VTGGDDWY,no binding
15,FTGRGAGV,binds
16,VTGTGDGV,no binding
17,VTGTGDGA,no binding
18,YTGEDAVA,no binding
19,YTGGGDGV,no binding
20,VTGGGDGS,no binding
21,VTGGGDGA,no binding
22,ATGRADVY,no binding
23,VTGTGAAV,no binding
24,VTGTGAAD,no binding
25,YTGATAGA,binds

row,Variant,non-specific binding call
1,YTEEGDWV,no binding
2,YTGEGSWV,no binding
3,VTGEDSLD,no binding
4,VTGEDSLV,no binding
5,VTGEDSLA,no binding
6,YTERGDVY,no binding
7,YTERGDVD,no binding
8,VTEEGSWV,no binding
9,ATGEDDVY,no binding
10,YTGGDDVD,no binding
11,YTGGDDVV,no binding
12,YTGGDDVY,no binding
13,DTEEGDWV,no binding
14,VTGTGDVY,no binding
15,VTGTGDVV,no binding
16,VTGGDALA,no binding
17,DTGTGDVF,no binding
18,DTGTGDVA,no binding
19,VTGTGDWV,no binding
20,VTGTGDWF,no binding
21,VTGGDDVY,no binding
22,YTEKTFSD,binds
23,YTGGADAV,no binding
24,DTGRADWA,no binding
25,DTGGGAGA,no binding

row,Variant,non-specific binding call
1,DTEGGSAS,no binding
2,VTGGDSVD,no binding
3,DTGGGAWD,no binding
4,ATGGAAGD,no binding
5,STGGDDVY,no binding
6,FTGGASGV chain 1 V111I,no binding
7,VTGANDWV,no binding
8,FTEEGAGD,no binding
9,ATGGDDWF,no binding
10,VTGGDSLV,no binding
11,FTEGDSGY,no binding
12,ATGGAALD,no binding
13,ATGGGYVA,binds
14,VTEGGALA,no binding
15,VTGGDSWF,no binding
16,DTGTGSGA,no binding
17,VTEGDDVF,no binding
18,VTGEDSGV,no binding
19,YTGRGSAA,binds
20,VTEENDGY,no binding
21,DTGTGASD,no binding
22,DTGTGDAA,no binding
23,VTGEDDWV,no binding
24,VTGEDDWD,no binding
25,VTGEDDWY,no binding

row,Variant,non-specific binding call
1,VTGTGAGV,no binding
2,VTGGSDVY,no binding
3,YTEKGVGV,binds
4,VTGKGDGV,no binding
5,YTEEAAVD,no binding
6,DTEEGDVA,no binding
7,ATGGDDGF,no binding
8,STGTGSGA,no binding
9,YTGEDDVY,no binding
10,VTGGDDSA,no binding
11,VTEEGDWV,no binding
12,VTEGGDVA,no binding
13,VTEGGDVY,no binding
14,YTGTGAVF,no binding
15,FTGRGSAD,binds
16,VTGEADAS,no binding
17,VTGEDAVV,no binding
18,FTGEADAS,no binding
19,VTGESDWY,no binding
20,DTGEDDVY,no binding
21,YTGKSVAV,binds
22,YTEGDDGD,no binding
23,YTEGDDGV,no binding
24,YTEGDDGA,no binding
25,DTGANDWV,no binding

row,Variant,non-specific binding call
1,VTGTGSSA,no binding
2,VTGTGSSD,no binding
3,STEEGDWV,no binding
4,DTGGDAGV,no binding
5,YTERAAWA,no binding
6,FTGRGAVA,binds
7,STGGNDAD,no binding
8,YTETGDSV,no binding
9,ATGEGDGV,no binding
10,DTGRGSGV,no binding
11,STGEADAS,no binding
12,ATGTGSGA,no binding
13,VTETGSLV,no binding
14,YTGRAALA,no binding
15,VTGTGSLV,no binding
16,VTGTGSLD,no binding
17,VTGRGDLA,no binding
18,STGEDDVY,no binding
